From patent US20040121411

What was measured:
[1] = system: radiolabeled βAPP-C83 polypeptide mimic
[2] = system: radiolabeled βAPP-C100 polypeptide mimic

## solubilized gamma-secretase complex (gamma-secretase associated with PS1) from HeLa cell membranes
[1]
  cleavage of 35S-labeled substrate, SDS-PAGE and phosphorimager: The radiolabeled βAPP-C83 substrate was also cleaved by the gamma-secretase complexes present in the solubilized protein and protein complex preparation (FIG. 7) and the affinity enriched protein preparation, to yield a 6 kDa cleavage product
[2]
  cleavage of 35S-labeled substrate, SDS-PAGE and phosphorimager: The radiolabeled βAPP-C100 substrate was cleaved by the gamma-secretase complexes present in the solubilized protein and protein complex preparation (FIGS. 6 and 7) and the affinity enriched protein preparation (FIG. 8), to yield a 6 kDa cleavage product
